Test results: patent publication US20060148030A1, “Nuclear receptor err y 3” (FUJISAWA PHARMACEUTICAL CO., LTD, priority 2002, published 2006)

Biological target: T1, RARα (Homo sapiens, UniProt P10276)
T1 construct: expressed in transfected cells; host or cells: CV-1 (African green monkey kidney)
T1 sequence (P10276 1-462): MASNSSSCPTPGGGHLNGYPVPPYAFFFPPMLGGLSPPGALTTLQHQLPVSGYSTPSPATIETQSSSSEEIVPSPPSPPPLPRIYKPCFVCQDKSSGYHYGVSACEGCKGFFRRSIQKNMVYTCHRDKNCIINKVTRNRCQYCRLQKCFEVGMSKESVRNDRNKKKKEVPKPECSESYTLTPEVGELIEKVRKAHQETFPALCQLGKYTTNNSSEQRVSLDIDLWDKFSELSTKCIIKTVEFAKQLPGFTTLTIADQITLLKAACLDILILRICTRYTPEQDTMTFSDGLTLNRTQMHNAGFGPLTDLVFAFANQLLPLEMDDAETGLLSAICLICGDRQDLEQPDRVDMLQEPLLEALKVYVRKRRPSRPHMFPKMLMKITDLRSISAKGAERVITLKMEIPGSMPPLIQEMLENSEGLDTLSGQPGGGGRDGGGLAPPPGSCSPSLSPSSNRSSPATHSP
T1 sequence (P19793 1-462 partner): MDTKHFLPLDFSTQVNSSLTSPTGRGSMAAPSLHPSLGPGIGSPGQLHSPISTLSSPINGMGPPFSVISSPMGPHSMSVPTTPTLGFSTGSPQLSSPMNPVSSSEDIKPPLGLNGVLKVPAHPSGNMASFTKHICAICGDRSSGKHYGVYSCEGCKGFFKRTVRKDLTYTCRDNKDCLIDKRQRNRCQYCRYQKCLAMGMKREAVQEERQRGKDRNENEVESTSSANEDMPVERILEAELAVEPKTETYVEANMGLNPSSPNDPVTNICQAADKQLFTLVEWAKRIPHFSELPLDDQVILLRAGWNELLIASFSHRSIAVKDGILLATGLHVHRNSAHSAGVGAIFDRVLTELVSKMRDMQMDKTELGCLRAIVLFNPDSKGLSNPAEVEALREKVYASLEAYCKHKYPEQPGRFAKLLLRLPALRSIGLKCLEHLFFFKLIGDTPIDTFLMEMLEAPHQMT
Experiment: Reporter gene assay, ERRγ3 coexisted with RARα, pGVP2-RARE in CV-1 cells
Format: cell-based
Settings: 5×10^−8 M retinoic acid, FIG. 22
Excerpt: The reporter gene assay was used to evaluate the effect of ligand 4-hydroxytamoxifen and 5×10^−8 M of retinoic acid on the function of ERRγ3 in enhancing the transcriptional activation function of retinoic acid receptor (RAR) (FIG. 22). RAR is a nuclear receptor belonging to group B of subfamily 1.
CV-1 cells (a cell line derived from the kidney of African green monkey) were used as hosts in the reporter gene assay. The luciferase reporter plasmid pGVP2-RARE and the expression plasmids for ERRγ3 and RARα: pcDNA3.1-ERRγ3 and pcDNA3.1-RARα, respectively, or alternatively the expression plasmid for both nuclear receptors, were transfected into the host cells. […]
Transfection was performed as follows: CV-1 cells were resuspended in DMEM supplemented with 10% fetal bovine serum, 2000 U/l of penicillin G, and 100 mg/l of streptomycin to a concentration of 2×10^5 cells/2.5 ml. […] 1 μg of each of the expression plasmids for the transcription factors, the luciferase reporter plasmid, and another luciferase reporter plasmid used for normalization of the measured values (pRL-TK), were dissolved in Opti-MEM (Gibco BRL), to a total of 150 μl. […] Luciferase activity was measured using the Dual-Luciferase™ Reporter Assay System (Promega). […] The protocol for measurement was as follows: 50 μl of Luciferase Assay Reagent II was added to each well, stirred for 0.3 seconds, and measured for one second. […]

B1: ERRγ3: novel ERRγ isoform, nuclear receptor protein of 396 amino acids (SEQ ID NO: 2) lacking part of the DNA binding domain (protein, listed as Homo sapiens)
chain: MSNKDRHIDSSCSSFIKTEPSSPASLTDSVNHHSPGGSSDASGSYSSTMNGHQNGLDSPPLYPSAPILGGSGPVRKLYDDCSSTIVEDPQTKCEYMLNSMPKRLCLVCGDIASGYHYGVASCEACKAFFKRTIQGVRLDRVRGGRQKYKRRIDAENSPYLNPQLAQPAKKPYNKIVSHLLVAEPEKIYAMPDPTVPDSDIKALTTLCDLADRELVVIIGWAKHIPGFSTLSLADQMSLLQSAWMEILILGVVYRSLSFEDELVYADDYIMDEDQSKLAGLLDLNNAILQLVKKYKSMKLEKEEFVTLKAIALANSDSMHIEDVEAVQKLQDVLHEALQDYEAGQHMEDPRRAGKMLMTLPLLRQTSTKAVQHFYNIKLEGKVPMHKLFLEMLEAKV
modifying effect on the transcriptional stimulation activity of RAR: did not show a significant modifying effect
